Measurements taken from publication PMC10470207, “Activation of human RNA lariat debranching enzyme Dbr1 by binding protein TTDN1 occurs though an intrinsically disordered C-terminal domain” (The Journal of Biological Chemistry, 2023).

Columns and labels:
[1] = biological target: the molecule itself; test: AUC; proteins diluted to 0.9 A280 in Q-A buffer (20 mM Tris pH 8, 50 mM NaCl, 1 mM TCEP); 40,000 RPM; analysed with Ultrascan
[2] = biological target: T1, human RNA lariat debranching enzyme Dbr1, full-length (1-544) (human, UniProt Q9UK59 1-544); test: fluorescence polarisation; fluorescein-labeled TTDN1 fixed at 2.5 nM; unlabeled Dbr1 titrated (3-fold dilution from 2.8 uM to 1 nM) or Drn1 at 225 nM; SEC buffer; black 96-well half-area plates; conditions: both partners purified
T1 construct: human RNA lariat debranching enzyme Dbr1, full-length, residues 1-544; codon-optimized expression plasmid synthesized by DNA2.0; also called hDbr1; human Dbr1; source: E. coli BL21, purified (Ni column, Source 15 Q)
T1 sequence (looked up): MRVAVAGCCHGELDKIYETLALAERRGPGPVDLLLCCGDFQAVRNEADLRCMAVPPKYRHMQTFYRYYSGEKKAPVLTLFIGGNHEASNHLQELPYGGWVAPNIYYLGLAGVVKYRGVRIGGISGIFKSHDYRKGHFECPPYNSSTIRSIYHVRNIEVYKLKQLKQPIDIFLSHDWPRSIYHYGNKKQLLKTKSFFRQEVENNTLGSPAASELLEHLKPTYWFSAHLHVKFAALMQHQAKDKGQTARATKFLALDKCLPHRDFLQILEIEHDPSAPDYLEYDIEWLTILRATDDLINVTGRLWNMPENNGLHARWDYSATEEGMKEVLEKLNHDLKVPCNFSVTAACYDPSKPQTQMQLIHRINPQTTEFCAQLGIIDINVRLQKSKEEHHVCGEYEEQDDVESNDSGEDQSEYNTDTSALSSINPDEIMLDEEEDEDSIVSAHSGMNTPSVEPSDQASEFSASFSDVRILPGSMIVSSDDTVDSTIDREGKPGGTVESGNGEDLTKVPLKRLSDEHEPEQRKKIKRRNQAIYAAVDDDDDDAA

[3] = biological target: T1, human RNA lariat debranching enzyme …; test: cell-based or functional assay
[4] = biological target: T1, human RNA lariat debranching enzyme …; test: SEC; Superdex 200-Increase 10/300 in SEC buffer (50 mM Tris pH 8, 100 mM NaCl, 1 mM TCEP); about 100 ug Dbr1 injected, Drn1 added at an equimolar ratio; peak fraction on a Coomassie-stained denaturing gel; conditions: both partners purified

B1: human Dbr1 truncated after residue 399 (Dbr1-399) (domain or fragment, UniProt Q9UK59 1-399, looked up)
chain: MRVAVAGCCHGELDKIYETLALAERRGPGPVDLLLCCGDFQAVRNEADLRCMAVPPKYRHMQTFYRYYSGEKKAPVLTLFIGGNHEASNHLQELPYGGWVAPNIYYLGLAGVVKYRGVRIGGISGIFKSHDYRKGHFECPPYNSSTIRSIYHVRNIEVYKLKQLKQPIDIFLSHDWPRSIYHYGNKKQLLKTKSFFRQEVENNTLGSPAASELLEHLKPTYWFSAHLHVKFAALMQHQAKDKGQTARATKFLALDKCLPHRDFLQILEIEHDPSAPDYLEYDIEWLTILRATDDLINVTGRLWNMPENNGLHARWDYSATEEGMKEVLEKLNHDLKVPCNFSVTAACYDPSKPQTQMQLIHRINPQTTEFCAQLGIIDINVRLQKSKEEHHVCGEYEEQ
notes: source: E. coli, purified
B1: binds [1].

B2: trichothiodystrophy nonphotosensitive 1 (TTDN1), fluorescein-labeled (natural protein, UniProt Q8TAP9 1-179, looked up)
chain: MQRQNFRPPTPPYPGPGGGGWGSGSSFRGTPGGGGPRPPSPRDGYGSPHHTPPYGPRSRPYGSSHSPRHGGSFPGGRFGSPSPGGYPGSYSRSPAGSQQQFGYSPGQQQTHPQGSPRTSTPFGSGRVREKRMSNELENYFKPSMLEDPWAGLEPVSVVDISQQYSNTQTFTGKKGRYFC
modifications: 5-iodoacetamido-fluorescein label on the cysteine residue at the C terminus
notes: trichothiodystrophy nonphotosensitive 1 (TTDN1); codon-optimized expression plasmid ordered from GenScript; The debranching (functional) assays used unlabeled, GuHCl-solubilized TTDN1 of the same construct; also called labeled TTDN1
In the case of B2, the Kd [2] is reported as about 3 nM and the “catalytic efficiency of Dbr1 debranching of a fluorescent branched RNA substrate, TTDN1:Dbr1 mixture at 10:1 molar ratio (unlabeled, GuHCl-solubilized TTDN1), relative to Dbr1 alone” value [3] is reported as 19 fold.

B3: Drn1 (human Drn1 homolog, Cwf19-L1) (natural protein, UniProt Q69YN2 1-538, looked up)
chain: MAQKPLRLLACGDVEGKFDILFNRVQAIQKKSGNFDLLLCVGNFFGSTQDAEWEEYKTGIKKAPIQTYVLGANNQETVKYFQDADGCELAENITYLGRKGIFTGSSGLQIVYLSGTESLNEPVPGYSFSPKDVSSLRMMLCTTSQFKGVDILLTSPWPKCVGNFGNSSGEVDTKKCGSALVSSLATGLKPRYHFAALEKTYYERLPYRNHIILQENAQHATRFIALANVGNPEKKKYLYAFSIVPMKLMDAAELVKQPPDVTENPYRKSGQEASIGKQILAPVEESACQFFFDLNEKQGRKRSSTGRDSKSSPHPKQPRKPPQPPGPCWFCLASPEVEKHLVVNIGTHCYLALAKGGLSDDHVLILPIGHYQSVVELSAEVVEEVEKYKATLRRFFKSRGKWCVVFERNYKSHHLQLQVIPVPISCSTTDDIKDAFITQAQEQQIELLEIPEHSDIKQIAQPGAAYFYVELDTGEKLFHRIKKNFPLQFGREVLASEAILNVPDKSDWRQCQISKEDEETLARRFRKDFEPYDFTLDD
notes: human Drn1 homolog (Cwf19-L1); cDNA purchased from Genecopoeia, subcloned into a modified pET vector; source: E. coli BL21, purified (Ni column, Superdex-200)
With B3 the “stoichiometry N” value [4] was 1.

B4: human Dbr1 truncated after residue 502 (Dbr1-502) (domain or fragment, UniProt Q9UK59 1-502, looked up)
chain: MRVAVAGCCHGELDKIYETLALAERRGPGPVDLLLCCGDFQAVRNEADLRCMAVPPKYRHMQTFYRYYSGEKKAPVLTLFIGGNHEASNHLQELPYGGWVAPNIYYLGLAGVVKYRGVRIGGISGIFKSHDYRKGHFECPPYNSSTIRSIYHVRNIEVYKLKQLKQPIDIFLSHDWPRSIYHYGNKKQLLKTKSFFRQEVENNTLGSPAASELLEHLKPTYWFSAHLHVKFAALMQHQAKDKGQTARATKFLALDKCLPHRDFLQILEIEHDPSAPDYLEYDIEWLTILRATDDLINVTGRLWNMPENNGLHARWDYSATEEGMKEVLEKLNHDLKVPCNFSVTAACYDPSKPQTQMQLIHRINPQTTEFCAQLGIIDINVRLQKSKEEHHVCGEYEEQDDVESNDSGEDQSEYNTDTSALSSINPDEIMLDEEEDEDSIVSAHSGMNTPSVEPSDQASEFSASFSDVRILPGSMIVSSDDTVDSTIDREGKPGGTVESGNG
notes: source: E. coli, purified
B4: binds [1].
